According to article PMC3415446:

What was measured:
[1] = target: NDV Ulster HN ectodomain (residues 49-616) (Newcastle disease virus (NDV), strain Ulster); experiment: not stated; ectodomain in solution; method not given
[2] = target: NDV Ulster HN ectodomain (residues 49-616) (Newcastle disease virus (NDV), strain Ulster); experiment: SDS-PAGE under non-reducing conditions
[3] = target: NDV Ulster HN NA domain (residues 124-616), containing the C-terminal extension (Newcastle disease virus (NDV), strain Ulster); experiment: SDS-PAGE under non-reducing conditions
[4] = target: NDV Ulster HN NA domain (residues 124-616), containing the C-terminal extension (Newcastle disease virus (NDV), strain Ulster); experiment: negative-stain electron microscopy
[5] = target: NDV Ulster HN NA domain (residues 124-616), containing the C-terminal extension (Newcastle disease virus (NDV), strain Ulster); experiment: SEC
[6] = target: NDV Ulster HN NA domain (residues 124-616), containing the C-terminal extension (Newcastle disease virus (NDV), strain Ulster); experiment: sucrose density gradient sedimentation

Measured: stoichiometry N

NDV Ulster HN ectodomain (residues 49-616) (domain or fragment)
2: [1] | [2]

NDV Ulster HN NA domain (residues 124-616), containing the C-terminal extension (domain or fragment)
2: [3] | [4] | [5] | [6]
